± gives the uncertainty stated by the source.
assay: protein stability index of a GFP-peptide fusion (yeast GPS) (PSI 1-4); higher = more stable; sorted into four equal gates, so the index is relative within each strain; settings: ubr1∆
Method in brief: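 The protein stability index of a peptide was calculated by multiplying its read frequency in each gate by that gate's number and adding the products. The peptides were tiled 17-residue stretches of yeast proteins, fused downstream of GFP on a Cherry-expressing plasmid and carried in yeast as a pooled library. Mid-log cultures in leucine-free medium were sorted into four equal gates by GFP/Cherry ratio, and each gate's plasmids were PCR-amplified and Illumina-sequenced.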

Point of comparison: ELKKYMDKKILLNINGS [SMX2], protein stability index 2 ± 0.045. Against it:
- EELLQLFLNNFVSRIPI [IRR1] — higher, 2.7 ± 0.041
- EELRKHAQKRVSNASAR [SKI6] — higher, 2.89 ± 0.073
- EENGDSIKEHSTTMDGA [MED1] — higher, 3.57 ± 0.14
- EENSSSNGNNLPLNKPR [RGR1] — higher, 3.26 ± 0.045
- EEREAAASKVKLEEESK [RPC53] — higher, 3.25 ± 0.063
- EESINEFKSIEIEMKNK [SMC4] — higher, 2.86 ± 0.097
- EESWEKVVEFAITHMID [SCL1] — higher, 2.91 ± 0.07
- EEVNRCYLRWQHLRNEH [SNF2] — higher, 3.05 ± 0.075
- EEYDDDDDNSNVDYYNV [SNF2] — higher, 3.06 ± 0.067
- EFDEQYGTRPLVLPPVV [SNF2] — higher, 2.53 ± 0.046
- EFFHLQHYLDTATAPRL [QCR6] — higher, 3 ± 0.069
- EFKSIEIEMKNKLEKLN [SMC4] — lower, 1.37 ± 0.046
- EFLEDTSRTIVRNVKGP [RPS28A] — higher, 3.03 ± 0.16
- EFLKWTPNVNVLVLHGD [ISW2] — lower, 1.84 ± 0.082
- EFLPLSLHILMIFWNDI [SRB8] — lower, 1.89 ± 0.036
- EFTENELNVDSMDVDDK [ITC1] — higher, 3.25 ± 0.093
- EFTKINTPLVGAAFKVI [YJL039C/NUP192] — lower, 1.69 ± 0.037
- EFVHKYLGEGPRMVRDV [RPT3] — higher, 3.17 ± 0.077
- EGDFLKSIIGKLTAERA [POP1] — higher, 3.03 ± 0.12
- EGHDWKAPTKLDDPEAV [DIS3] — higher, 3.25 ± 0.046
- EGIKETQAKRIFLQQFL [SWI1] — higher, 2.26 ± 0.066
- EGLNQRNQVQTENVAQA [YGR119C/NUP57] — higher, 2.65 ± 0.06
- EGNEKLAAVPAAGPASA [RPP2A] — higher, 2.79 ± 0.063
- EGSTIRYLAVTLQDIGF [YMR129W/POM152] — higher, 2.71 ± 0.041
- EHEEKEKERETNKKGIK [RPN2] — higher, 3.4 ± 0.25
- EIDDFNDIDDLDMELAE [SEC65] — higher, 3.22 ± 0.12
- EIDPLTGMPISNDPDVN [BRN1] — higher, 3.03 ± 0.085
- EIDTILSTLRMEADPSL [RPN9] — higher, 2.67 ± 0.087
- EIFIRCNNVLYIRELPN [SMX3] — lower, 1.48 ± 0.12
- EIGGSDLKESMVKGLLK [ECM29] — higher, 2.76 ± 0.21
- EILEKCAEGIFVVKLDT [GAL11] — higher, 3.72 ± 0.28
- EILVTELTAQGYDPALL [RPN2] — higher, 3.28 ± 0.1
- EINSEDYDNKTKLIGVL [SRP68] — higher, 3.02 ± 0.12
- EINSEMCHIVRKFHELN [GRR1] — higher, 2.44 ± 0.05
- EINYAFSMDEEFKNMDC [SIR3] — higher, 3.25 ± 0.048
- EITDASLNLQYVNYEIS [YML103C/NUP188] — higher, 2.79 ± 0.049
- EIYKQLNDRQEEISRLQ [YIL149C/MLP2] — higher, 3.38 ± 0.07
- EIYRISFQLSKIRRAAR [RPS9A] — higher, 2.29 ± 0.046
- EKADYEDEMMHEEDQKT [RPN12] — higher, 3.03 ± 0.17
- EKDASGKPSFVFGASDK [YOR098C/NUP1] — higher, 2.37 ± 0.074
- EKDAVSVFGFRTQFGGG [RPS24A] — within error, 1.93 ± 0.064
- EKFSPKSFISKLLGIGD [SRP54] — higher, 3.21 ± 0.17
- EKGENPSCVYNLIGVIT [UBP6] — higher, 3.06 ± 0.1
- EKGSWEQLSPQDVLQML [BRR2] — higher, 3.03 ± 0.088
- EKKDSGSSKPAFSFGAK [YJL041W/NSP1] — higher, 3.35 ± 0.051
- EKLLKELENNEFTENEL [ITC1] — higher, 3.33 ± 0.097
- EKPDNSNHNNLNLNNSE [SNF2] — higher, 3.17 ± 0.034
- EKRIQYAKDILQKEFLP [RPB2] — within error, 2.08 ± 0.09
- EKRYDDKLLDFIRYDVK [CSN12] — higher, 3.17 ± 0.066
- EKTLGKSLSKAISTGAK [RPN7] — higher, 3.57 ± 0.19
- EKTMMTFGKPEEEDSIL [YCS4] — higher, 3.27 ± 0.088
- ELDKREDMIDQVSKKLS [SMC3] — higher, 2.81 ± 0.096
- ELDPECQLQNSDNSEEE [RRP43] — higher, 3 ± 0.063
- ELDRAAMNDKDLTMGQV [RPO21] — higher, 3.12 ± 0.097
- ELEDVAVKKLYAIIINY [YCS4] — lower, 1.44 ± 0.031
- ELENNEFTENELNVDSM [ITC1] — higher, 3.27 ± 0.069
- ELENSSPELKAELRPLQ [RPS7A] — higher, 3.64 ± 0.15
- ELESITESITHDSSNGL [NUT1] — higher, 3.2 ± 0.067
- ELFDILSTSEDVSIEEL [IRR1] — the same, 2 ± 0.13
- ELGEFFVNGVATSFSRK [FAS2] — higher, 2.69 ± 0.048
- ELISLRKILESSNIVNE [YIL149C/MLP2] — within error, 2.12 ± 0.1
- ELLLTTLSVSHGINLQN [SSN2] — higher, 2.19 ± 0.059
- ELLREWLETYSENRDKF [IRR1] — higher, 3.51 ± 0.056
- ELLSMNIAPRLRLEDIF [RET1] — higher, 2.5 ± 0.047
- ELQKSLSLEEVEGHLFE [FAS1] — higher, 3.08 ± 0.098
- ELSFYILYSFKLSGKLL [YML103C/NUP188] — lower, 1.74 ± 0.037
- ELTIIKNPRVTKEYLVQ [CSN9] — higher, 3.35 ± 0.091
- EMKNIRGPYLVIVPLST [SNF2] — lower, 1.38 ± 0.043
- EMSNKVLKVDKRFMNTS [BRR2] — higher, 2.93 ± 0.039
- ENANAANNGAAFSPLTT [MED2] — higher, 2.79 ± 0.057
- ENAYKSENAPSASSKEF [YAR002W/NUP60] — higher, 2.15 ± 0.074
- ENCLNNDPEILKKIASI [SWI1] — higher, 2.71 ± 0.092
- ENDIIKLSDSKTSNIES [BRR2] — higher, 3.09 ± 0.15
- ENDLLQEFDSELSKEEK [SMC3] — higher, 3.03 ± 0.27
- ENDTTLVKTKELIKNYI [FAS1] — higher, 2.68 ± 0.058
- ENFAKGEHISAIVPGQS [SWP82] — higher, 3.05 ± 0.055
- ENGIEVELLDSNDRVNP [ITC1] — higher, 3.19 ± 0.061
- ENGQRDLDRIAAQTLEE [RPS19A] — higher, 3.19 ± 0.093
- ENISLAEFILKNRSTIF [BRR2] — lower, 1.88 ± 0.054
- ENKTKKDNDKNLKFLKN [SRB4] — higher, 3.42 ± 0.057
- ENLVVADLESFANNHFL [COR1] — within error, 1.89 ± 0.12
- ENNDDALDLDLDLFDPD [MED4] — higher, 3.1 ± 0.051
- EPAIEEENGDSIKEHST [MED1] — higher, 3.56 ± 0.14
- EPIDQNTGIVSSTTGMS [RPT3] — higher, 3.24 ± 0.089
- EPIEESSQNNSELAPIE [IRR1] — higher, 2.73 ± 0.095
- EPPGSNTSFSFTKPPAN [YOR098C/NUP1] — higher, 2.96 ± 0.053
- EPVKEYTFKTSMRVKPS [YMR129W/POM152] — higher, 3.48 ± 0.16
- EQHEEKAAEGEEKEEEN [QCR6] — higher, 3.23 ± 0.079
- EQIDENWSKEDLQKLLK [SWI3] — higher, 3.26 ± 0.058
- EQQVKEAEMAYVKAVSD [SMC4] — higher, 2.83 ± 0.069
- EQVKDDGTSTEKTFLHL [RPN8] — higher, 3.46 ± 0.082
- ERAARVAAKIAALAGQQ [RPL5] — higher, 3.11 ± 0.079
- ERDEQKRAEKKAKERLQ [SNF2] — higher, 3.4 ± 0.12
- ERDTFSDFTFPEYYSTA [DIS3] — lower, 1.64 ± 0.14
- EREQPQENKNIDDENIT [SRB4] — higher, 3.65 ± 0.084
- ERTKNAQFIVISLRNNM [SMC4] — lower, 1.73 ± 0.08
- ERVRLRPEQLSNIIHDE [SNF6] — within error, 1.99 ± 0.041
- ERVRNFAVIYLCDIDEV [DIB1] — lower, 1.36 ± 0.088

Source: the supplement of paper PMC9732359
